Measurements published in the supplement of paper PMC9233669.
Variants at the floor of the assay were thinned out.

Legend:
[1] = test system: biotinyl-Phe-oxazolone; experiment: self-aminoacylation, catalytic enhancement (BFO) (fold over background); higher = more active; k-Seq, kA / k0A0; sequences stand for … in GGGAAUGGAUCCACAUCUACGAAUUC…UUCACUGCAGACUUGACGAAGCUG
In short: (§1)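 Working in 50 μL HEPES/NaCl/KCl/MgCl2/CaCl2 buffer with 5% acetonitrile at pH 6.9–7.0, mutagenized RNA pools (0.43 μM; 21-nt variable region) were reacted with 2–1250 μM of each biotinyl-aminoacyl-oxazolone for 90 minutes at room temperature. Streptavidin capture followed, with quantification by triplicate qPCR and Illumina sequencing. Catalytic enhancement is reported as median kA over the uncatalyzed rate, the low-activity peak of a bimodal Gaussian fit to the data.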

[2] = test system: biotinyl-Ile-oxazolone; experiment: self-aminoacylation, catalytic enhancement (BIO) (fold over background); higher = more active; k-Seq, kA / k0A0; sequences stand for … in GGGAAUGGAUCCACAUCUACGAAUUC…UUCACUGCAGACUUGACGAAGCUG
In short: as §1

[3] = test system: biotinyl-Val-oxazolone; experiment: self-aminoacylation, catalytic enhancement (BVO) (fold over background); higher = more active; k-Seq, kA / k0A0; sequences stand for … in GGGAAUGGAUCCACAUCUACGAAUUC…UUCACUGCAGACUUGACGAAGCUG
In short: as §1

[4] = test system: biotinyl-Leu-oxazolone; experiment: self-aminoacylation, catalytic enhancement (BLO) (fold over background); higher = more active; k-Seq, kA / k0A0; sequences stand for … in GGGAAUGGAUCCACAUCUACGAAUUC…UUCACUGCAGACUUGACGAAGCUG
In short: as §1

[5] = test system: biotinyl-Trp-oxazolone; experiment: self-aminoacylation, catalytic enhancement (BWO) (fold over background); higher = more active; k-Seq, kA / k0A0; sequences stand for … in GGGAAUGGAUCCACAUCUACGAAUUC…UUCACUGCAGACUUGACGAAGCUG
In short: as §1

[6] = test system: biotinyl-Met-oxazolone; experiment: self-aminoacylation, catalytic enhancement (BMO) (fold over background); higher = more active; k-Seq, kA / k0A0; sequences stand for … in GGGAAUGGAUCCACAUCUACGAAUUC…UUCACUGCAGACUUGACGAAGCUG
In short: as §1

## AAGUCUGCUAAUAGCCGCAAG [Fam3.1 aminoacylation ribozyme variant]
[1]
  self-aminoacylation: 8.57
[2]
  self-aminoacylation: 1.11
[3]
  self-aminoacylation: 1.02
[4]
  self-aminoacylation: 0.989
[5]
  self-aminoacylation: 3.25
[6]
  self-aminoacylation: 1.13

## AAGUCUGCUAAUAGUCGAAAG [Fam3.1 aminoacylation ribozyme variant]
[1]
  self-aminoacylation: 16.8
[2]
  self-aminoacylation: 1.1
[3]
  self-aminoacylation: 1.04
[4]
  self-aminoacylation: 1.52
[5]
  self-aminoacylation: 6.05
[6]
  self-aminoacylation: 1.84

## AAGUCUGCUAAUAGUCGCAAC [Fam3.1 aminoacylation ribozyme variant]
[1]
  self-aminoacylation: 1.39
[2]
  self-aminoacylation: 1.03
[3]
  self-aminoacylation: 1.06
[4]
  self-aminoacylation: 1.39
[5]
  self-aminoacylation: 0.655
[6]
  self-aminoacylation: 1.04

## AAGUCUGCUAAUAGUCGCCAG [Fam3.1 aminoacylation ribozyme variant]
[1]
  self-aminoacylation: 1.8
[2]
  self-aminoacylation: 1.1
[3]
  self-aminoacylation: 1.32
[4]
  self-aminoacylation: 1.04
[5]
  self-aminoacylation: 3.43
[6]
  self-aminoacylation: 1.34

## AAGUCUGCUAAUCGUCGCAAG [Fam3.1 aminoacylation ribozyme variant]
[1]
  self-aminoacylation: 4.49
[2]
  self-aminoacylation: 0.996
[3]
  self-aminoacylation: 1.01
[4]
  self-aminoacylation: 1.15
[5]
  self-aminoacylation: 1.94
[6]
  self-aminoacylation: 1.36

## AAGUGUACUAAUAGUCGCAAG [Fam3.1 aminoacylation ribozyme variant]
[1]
  self-aminoacylation: 1.74
[2]
  self-aminoacylation: 1.4
[3]
  self-aminoacylation: 1.51
[4]
  self-aminoacylation: 1.2
[5]
  self-aminoacylation: 1.2
[6]
  self-aminoacylation: 1.17

## AAGUGUCCUAAUAGUCGCAAG [Fam3.1 aminoacylation ribozyme variant]
[1]
  self-aminoacylation: 0.985
[2]
  self-aminoacylation: 1.18
[3]
  self-aminoacylation: 0.995
[4]
  self-aminoacylation: 0.952
[5]
  self-aminoacylation: 0.664
[6]
  self-aminoacylation: 0.945

## AAGUGUGCGAAUAGUCGCAAG [Fam3.1 aminoacylation ribozyme variant]
[1]
  self-aminoacylation: 2.28
[2]
  self-aminoacylation: 1.72
[3]
  self-aminoacylation: 1.82
[4]
  self-aminoacylation: 1.76
[5]
  self-aminoacylation: 1.38
[6]
  self-aminoacylation: 1.79

## AAGUGUGCUAAGAGUCGCAAG [Fam3.1 aminoacylation ribozyme variant]
[1]
  self-aminoacylation: 5.24
[2]
  self-aminoacylation: 1.11
[3]
  self-aminoacylation: 0.87
[4]
  self-aminoacylation: 1.13
[5]
  self-aminoacylation: 2.15
[6]
  self-aminoacylation: 1.15

## AAGUGUGCUAAUAUUCGCAAG [Fam3.1 aminoacylation ribozyme variant]
[1]
  self-aminoacylation: 1.63
[2]
  self-aminoacylation: 1.92
[3]
  self-aminoacylation: 1.53
[4]
  self-aminoacylation: 1.51
[5]
  self-aminoacylation: 2.22
[6]
  self-aminoacylation: 1.58

## AAGUUAGCUAACAGUCGCAAG [Fam3.1 aminoacylation ribozyme variant]
[1]
  self-aminoacylation: 2.2
[2]
  self-aminoacylation: 1.83
[3]
  self-aminoacylation: 1.68
[4]
  self-aminoacylation: 1.66
[5]
  self-aminoacylation: 1.56
[6]
  self-aminoacylation: 2.31

## AAGUUAGCUAAUAGCCGCAAG [Fam3.1 aminoacylation ribozyme variant]
[1]
  self-aminoacylation: 1.96
[2]
  self-aminoacylation: 1.88
[3]
  self-aminoacylation: 1.6
[4]
  self-aminoacylation: 1.44
[5]
  self-aminoacylation: 2.02
[6]
  self-aminoacylation: 0.903

## AAGUUAGCUAAUAGUCGCAUG [Fam3.1 aminoacylation ribozyme variant]
[1]
  self-aminoacylation: 3
[2]
  self-aminoacylation: 1.83
[3]
  self-aminoacylation: 1.34
[4]
  self-aminoacylation: 1.97
[5]
  self-aminoacylation: 1.64
[6]
  self-aminoacylation: 1.07

## AAGUUAGCUAAUAGUCGGAAG [Fam3.1 aminoacylation ribozyme variant]
[1]
  self-aminoacylation: 3.13
[2]
  self-aminoacylation: 1.07
[3]
  self-aminoacylation: 1.32
[4]
  self-aminoacylation: 1.28
[5]
  self-aminoacylation: 1.94
[6]
  self-aminoacylation: 1.12

## AAGUUAGCUUAUAGUCGCAAG [Fam3.1 aminoacylation ribozyme variant]
[1]
  self-aminoacylation: 2.88
[2]
  self-aminoacylation: 1.8
[3]
  self-aminoacylation: 1.56
[4]
  self-aminoacylation: 1.48
[5]
  self-aminoacylation: 1.9
[6]
  self-aminoacylation: 1.43

## AAGUUAUCUAAUAGUCGCAAG [Fam3.1 aminoacylation ribozyme variant]
[1]
  self-aminoacylation: 2.66
[2]
  self-aminoacylation: 1.51
[3]
  self-aminoacylation: 1.18
[4]
  self-aminoacylation: 1.53
[5]
  self-aminoacylation: 1.36
[6]
  self-aminoacylation: 1.32

## AAGUUCGCUAAUACUCGCAAG [Fam3.1 aminoacylation ribozyme variant]
[1]
  self-aminoacylation: 0.849
[2]
  self-aminoacylation: 1.53
[3]
  self-aminoacylation: 1.12
[4]
  self-aminoacylation: 1.2
[5]
  self-aminoacylation: 0.7
[6]
  self-aminoacylation: 1.47

## AAGUUCGCUAAUAGCCGCAAG [Fam3.1 aminoacylation ribozyme variant]
[1]
  self-aminoacylation: 1.97
[2]
  self-aminoacylation: 1.35
[3]
  self-aminoacylation: 1.12
[4]
  self-aminoacylation: 1.38
[5]
  self-aminoacylation: 1.75
[6]
  self-aminoacylation: 1.82

## AAGUUCGCUAAUAGUCGCUAG [Fam3.1 aminoacylation ribozyme variant]
[1]
  self-aminoacylation: 1.34
[2]
  self-aminoacylation: 1.48
[3]
  self-aminoacylation: 1.4
[4]
  self-aminoacylation: 1.47
[5]
  self-aminoacylation: 1.45
[6]
  self-aminoacylation: 1.53

## AAGUUCGCUAAUCGUCGCAAG [Fam3.1 aminoacylation ribozyme variant]
[1]
  self-aminoacylation: 6.17
[2]
  self-aminoacylation: 1.6
[3]
  self-aminoacylation: 1.48
[4]
  self-aminoacylation: 1.05
[5]
  self-aminoacylation: 2.55
[6]
  self-aminoacylation: 1.25

## AAGUUCGCUAAUUGUCGCAAG [Fam3.1 aminoacylation ribozyme variant]
[1]
  self-aminoacylation: 3.26
[2]
  self-aminoacylation: 1.68
[3]
  self-aminoacylation: 1.7
[4]
  self-aminoacylation: 2.06
[5]
  self-aminoacylation: 1.51
[6]
  self-aminoacylation: 1.3

## AAGUUGGCUAAUAGCCGCAAG [Fam3.1 aminoacylation ribozyme variant]
[1]
  self-aminoacylation: 2.16
[2]
  self-aminoacylation: 1.89
[3]
  self-aminoacylation: 1.91
[4]
  self-aminoacylation: 1.95
[5]
  self-aminoacylation: 2.85
[6]
  self-aminoacylation: 2.22

## AAGUUGGCUAAUAGUCGCAGG [Fam3.1 aminoacylation ribozyme variant]
[1]
  self-aminoacylation: 3.81
[2]
  self-aminoacylation: 1.59
[3]
  self-aminoacylation: 1.34
[4]
  self-aminoacylation: 1.97
[5]
  self-aminoacylation: 1.23
[6]
  self-aminoacylation: 1.6

## AAGUUGGCUCAUAGUCGCAAG [Fam3.1 aminoacylation ribozyme variant]
[1]
  self-aminoacylation: 2.43
[2]
  self-aminoacylation: 1.8
[3]
  self-aminoacylation: 1.88
[4]
  self-aminoacylation: 1.99
[5]
  self-aminoacylation: 2.44
[6]
  self-aminoacylation: 1.71

## AAGUUUACAAAUAGUCGCAAG [Fam3.1 aminoacylation ribozyme variant]
[1]
  self-aminoacylation: 2.51
[2]
  self-aminoacylation: 1.92
[3]
  self-aminoacylation: 1.66
[4]
  self-aminoacylation: 1.8
[5]
  self-aminoacylation: 1.98
[6]
  self-aminoacylation: 1.51
